The target in assay [1] is UBA5 Y372A (human, UniProt Q9GZZ9 1-404, Y372A). The assay is described as follows: ITC.
Assay [2] addresses UBA5 333–404 (human, UniProt Q9GZZ9 333-404). Description: ITC. On the technique in general: Isothermal titration calorimetry measures the heat released or taken up as one component is titrated into another.

Chain of UBA5 333–404 (Q9GZZ9 333-404): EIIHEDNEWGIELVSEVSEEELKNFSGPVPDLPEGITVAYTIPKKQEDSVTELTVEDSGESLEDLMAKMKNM
Chain of UBA5 Y372A (Q9GZZ9 whole entry Y372A): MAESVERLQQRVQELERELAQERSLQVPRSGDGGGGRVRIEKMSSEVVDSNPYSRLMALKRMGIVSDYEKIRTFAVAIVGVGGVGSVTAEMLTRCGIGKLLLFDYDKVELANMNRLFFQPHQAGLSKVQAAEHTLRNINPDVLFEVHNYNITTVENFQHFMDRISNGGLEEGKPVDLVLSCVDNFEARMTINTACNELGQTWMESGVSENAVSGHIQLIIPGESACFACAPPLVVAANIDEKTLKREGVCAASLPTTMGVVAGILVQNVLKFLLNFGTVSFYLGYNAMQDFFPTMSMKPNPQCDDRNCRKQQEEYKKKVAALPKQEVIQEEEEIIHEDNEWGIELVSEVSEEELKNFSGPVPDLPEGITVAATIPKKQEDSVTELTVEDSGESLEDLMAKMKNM

B1: UFC1 (WT) (enzyme)
chain: MADEATRRVVSEIPVLKTNAGPRDRELWVQRLKEEYQSLIRYVENNKNADNDWFRLESNKEGTRWFGKCWYIHDLLKYEFDIEFDIPITYPTTAPEIAVPELDGKTAKMYRGGKICLTDHFKPLWARNVPKFGLAHLMALGLGPWLAVEIPDLIQKGVIQHKEKCNQ
Regarding B1, the Kd turned out to be 1900 nM in assay [1] and 2500 nM in assay [2].

As a reminder, the Kd is the constant that tells how readily two partners part at equilibrium. A low value points to a tighter complex.

Source of the values: article PMC8481289 (2021).
